Source: patent US20150165065A1 (AVIDBIOTICS, published 2015)

T1: biotinylated human NKG2D (human, UniProt P26718 78-216, limits assumed, biotinylated (site not stated))
T1 construct: Surface-coated in biolayer interferometry (Octet); also called recombinant biotinylated NKG2D
T1 sequence (looked up): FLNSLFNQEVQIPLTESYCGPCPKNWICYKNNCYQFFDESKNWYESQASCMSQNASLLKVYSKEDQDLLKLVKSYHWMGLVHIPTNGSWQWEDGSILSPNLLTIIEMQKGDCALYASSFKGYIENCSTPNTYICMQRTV

T2: mouse NKG2D-Fc (mouse, UniProt O54709 94-232, limits assumed)
T2 construct: Construct not described; also called murine NKG2D-Fc; murine NKG2D; not shown: Fc part
T2 sequence (looked up): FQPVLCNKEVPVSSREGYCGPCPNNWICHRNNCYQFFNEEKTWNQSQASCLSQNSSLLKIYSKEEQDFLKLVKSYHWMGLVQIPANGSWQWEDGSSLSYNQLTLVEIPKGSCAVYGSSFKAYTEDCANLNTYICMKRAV

T3: human NKG2D-Fc (human, UniProt P26718 78-216, limits assumed)
T3 construct: construct not described; also called human NKG2D-Fc reagent; not shown: Fc part
T3 sequence (looked up): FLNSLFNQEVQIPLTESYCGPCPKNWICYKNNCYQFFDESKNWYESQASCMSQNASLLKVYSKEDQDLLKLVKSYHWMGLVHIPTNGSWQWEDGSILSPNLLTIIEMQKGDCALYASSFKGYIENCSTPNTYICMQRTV

T4: FGFR3 (coated on wells) (UniProt P22607 23-375, limits assumed)
T4 construct: Coated at 2 ug/ml on Maxisorp plates; also called Fibroblast Growth Factor Receptor 3
T4 sequence (looked up): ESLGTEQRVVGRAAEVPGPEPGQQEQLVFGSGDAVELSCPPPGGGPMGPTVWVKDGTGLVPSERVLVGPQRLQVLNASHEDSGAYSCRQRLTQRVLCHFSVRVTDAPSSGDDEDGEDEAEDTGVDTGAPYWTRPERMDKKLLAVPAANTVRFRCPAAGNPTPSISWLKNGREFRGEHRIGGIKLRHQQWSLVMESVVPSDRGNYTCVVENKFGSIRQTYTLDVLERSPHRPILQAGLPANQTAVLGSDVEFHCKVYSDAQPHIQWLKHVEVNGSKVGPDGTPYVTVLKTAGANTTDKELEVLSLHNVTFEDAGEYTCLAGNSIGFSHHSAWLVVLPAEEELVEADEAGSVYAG


Tests used:
FGFR3 (coated on wells) [1] = biological target: FGFR3 (coated on wells) (UniProt P22607); assay: ELISA on FGFR3-coated wells after 1 hour at 60 C and 1 hour back at room temperature [panel A]
integrin αVβ5 = biological target: T5, integrin αVβ5 (UniProt P06756 31-992; P18084 24-719); assay: ELISA, coated integrin, anti-MICA-HRP
T5 construct: Coated on the ELISA plate

integrin αVβ3 = biological target: T6, integrin αVβ3 (UniProt P06756 31-992; P05106 27-718); assay: ELISA, coated integrin, anti-MICA-HRP
T6 construct: Coated on the ELISA plate

[2] = biological target: NKG2D receptor on NKL effector cells (human) (UniProt P26718); assay: cell-based or functional assay
biotinylated human NKG2D [3] = biological target: T1, biotinylated human NKG2D; assay: BLI (Octet), coated biotinylated human NKG2D, 100 nM analyte
mouse NKG2D-Fc = biological target: T2, mouse NKG2D-Fc; assay: competition ELISA: titrated soluble protein inhibits binding of mouse NKG2D-Fc to plate-coated MICA [panel B]
Text: (§1) As for the NKG2D ligands (NKG2DLs) in the above example, we attached polypeptides directly to each of these 4 modified α1-α2 NKG2DLs using a linker peptide. The 4 His-tagged proteins (SEQ ID NOs.: 131-134) were expressed in insect cells and purified to characterize their NKG2D binding affinities and kinetic binding parameters. Using a competitive binding ELISA, we determined the relative NKG2D binding affinities of the 4 modified α1-α2 variants.

human NKG2D-Fc [4] = biological target: T3, human NKG2D-Fc; assay: competition ELISA, human NKG2D-Fc on coated WT sMICA
Text: as §1

biotinylated human NKG2D [5] = biological target: T1, biotinylated human NKG2D; assay: BLI (Octet), Kd = kOFF/kON
human NKG2D-Fc [6] = biological target: T3, human NKG2D-Fc; assay: competition ELISA, 2 nM human NKG2D-Fc on coated WT sMICA
Text: as §1

biotinylated human NKG2D [7] = biological target: T1, biotinylated human NKG2D; assay: BLI (Octet)
FGFR3 (coated on wells) [8] = biological target: T4, FGFR3 (coated on wells); assay: ELISA on FGFR3-coated wells after 1 hour at 80 C and 1 hour back at room temperature [panel B]
FGFR3 (coated on wells) [9] = biological target: T4, FGFR3 (coated on wells); assay: ELISA on FGFR3-coated wells (2 ug/ml), bound sMICA detected with NKG2D-Fc and anti-Fc-HRP
Experimental: The purified MICA-α3-iFv proteins were tested in a FGFR3-binding ELISA to confirm simultaneous binding to the FGFR3 target and the NKG2D receptor. FGFR3 in phosphate buffered saline (PBS) was coated onto Maxisorp plates at 2 ug/ml concentration. Each MICA protein was titrated, allowed to bind FGFR3 for 1 hour, and washed to remove unbound sMICA protein. The bound MICA-α3-iFv protein was detected using NKG2D-Fc and anti-Fc-HRP conjugate.

T6 sequence (P06756 31-992, chain 1 of 2): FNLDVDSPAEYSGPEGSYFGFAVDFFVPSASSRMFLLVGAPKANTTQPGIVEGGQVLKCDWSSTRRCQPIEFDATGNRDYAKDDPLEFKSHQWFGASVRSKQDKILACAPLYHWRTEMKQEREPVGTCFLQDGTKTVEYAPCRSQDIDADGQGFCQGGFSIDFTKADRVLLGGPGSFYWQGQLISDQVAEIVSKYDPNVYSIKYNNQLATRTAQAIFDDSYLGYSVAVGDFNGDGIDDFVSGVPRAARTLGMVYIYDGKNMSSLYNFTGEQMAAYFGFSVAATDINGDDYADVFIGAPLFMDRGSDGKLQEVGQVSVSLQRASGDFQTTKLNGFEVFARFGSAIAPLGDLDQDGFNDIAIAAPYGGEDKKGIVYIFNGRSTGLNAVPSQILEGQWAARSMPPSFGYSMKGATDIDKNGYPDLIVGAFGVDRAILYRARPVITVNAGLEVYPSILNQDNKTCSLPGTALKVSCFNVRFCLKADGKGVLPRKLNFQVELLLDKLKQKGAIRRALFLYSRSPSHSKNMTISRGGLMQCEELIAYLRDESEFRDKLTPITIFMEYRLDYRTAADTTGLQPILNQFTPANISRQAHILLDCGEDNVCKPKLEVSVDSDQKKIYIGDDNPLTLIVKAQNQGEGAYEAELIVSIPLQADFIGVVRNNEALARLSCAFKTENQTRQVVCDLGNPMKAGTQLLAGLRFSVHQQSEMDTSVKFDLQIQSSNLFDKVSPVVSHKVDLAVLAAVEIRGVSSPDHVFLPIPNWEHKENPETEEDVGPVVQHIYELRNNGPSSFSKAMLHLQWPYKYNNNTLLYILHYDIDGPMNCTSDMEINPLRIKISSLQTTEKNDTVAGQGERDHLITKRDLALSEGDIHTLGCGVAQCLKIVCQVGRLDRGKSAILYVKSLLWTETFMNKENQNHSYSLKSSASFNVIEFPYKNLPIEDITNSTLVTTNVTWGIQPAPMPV
T6 sequence (P05106 27-718, chain 2 of 2): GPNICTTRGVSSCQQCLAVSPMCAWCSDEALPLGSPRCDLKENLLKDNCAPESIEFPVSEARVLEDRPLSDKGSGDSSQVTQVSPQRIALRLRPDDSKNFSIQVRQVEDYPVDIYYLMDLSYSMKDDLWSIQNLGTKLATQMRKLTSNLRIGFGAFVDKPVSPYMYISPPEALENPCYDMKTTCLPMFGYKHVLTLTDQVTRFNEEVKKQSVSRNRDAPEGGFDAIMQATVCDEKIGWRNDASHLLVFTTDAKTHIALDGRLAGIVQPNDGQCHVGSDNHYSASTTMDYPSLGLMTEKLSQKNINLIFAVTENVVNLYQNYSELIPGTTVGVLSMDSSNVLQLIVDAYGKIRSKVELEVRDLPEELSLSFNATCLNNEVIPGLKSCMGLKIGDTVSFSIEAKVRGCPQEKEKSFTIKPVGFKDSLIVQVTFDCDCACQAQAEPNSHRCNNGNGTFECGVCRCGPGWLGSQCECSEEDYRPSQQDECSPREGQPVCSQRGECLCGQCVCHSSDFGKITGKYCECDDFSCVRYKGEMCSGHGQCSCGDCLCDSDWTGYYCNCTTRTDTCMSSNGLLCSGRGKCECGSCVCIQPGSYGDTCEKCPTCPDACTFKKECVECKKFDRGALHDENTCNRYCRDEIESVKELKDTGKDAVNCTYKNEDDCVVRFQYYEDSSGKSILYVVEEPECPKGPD
T5 sequence (P06756 31-992, chain 1 of 2): as the sequence (P06756 31-992, chain 1 of 2) above
T5 sequence (P18084 24-719, chain 2 of 2): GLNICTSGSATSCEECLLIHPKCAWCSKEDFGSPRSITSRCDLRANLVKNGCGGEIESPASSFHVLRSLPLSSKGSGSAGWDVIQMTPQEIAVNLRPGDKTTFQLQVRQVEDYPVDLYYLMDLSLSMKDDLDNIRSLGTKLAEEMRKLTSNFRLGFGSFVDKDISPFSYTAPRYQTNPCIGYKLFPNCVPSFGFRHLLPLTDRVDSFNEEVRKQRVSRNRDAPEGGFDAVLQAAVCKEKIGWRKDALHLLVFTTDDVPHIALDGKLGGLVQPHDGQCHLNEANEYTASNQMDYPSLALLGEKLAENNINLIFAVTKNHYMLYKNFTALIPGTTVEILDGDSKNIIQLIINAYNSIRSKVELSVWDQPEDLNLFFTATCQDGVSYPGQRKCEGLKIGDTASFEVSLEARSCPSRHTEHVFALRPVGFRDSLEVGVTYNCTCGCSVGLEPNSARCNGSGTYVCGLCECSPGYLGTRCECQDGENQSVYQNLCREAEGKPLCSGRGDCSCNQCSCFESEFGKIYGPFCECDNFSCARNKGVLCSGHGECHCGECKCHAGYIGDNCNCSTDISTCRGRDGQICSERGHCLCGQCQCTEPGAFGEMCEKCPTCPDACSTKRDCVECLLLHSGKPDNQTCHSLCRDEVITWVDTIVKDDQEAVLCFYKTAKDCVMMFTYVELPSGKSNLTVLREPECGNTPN
Sequence of MICA-scFv (traditional scFv constructed from MAbR3 fused to the C-terminus of soluble MICA) (Q29983 24-307): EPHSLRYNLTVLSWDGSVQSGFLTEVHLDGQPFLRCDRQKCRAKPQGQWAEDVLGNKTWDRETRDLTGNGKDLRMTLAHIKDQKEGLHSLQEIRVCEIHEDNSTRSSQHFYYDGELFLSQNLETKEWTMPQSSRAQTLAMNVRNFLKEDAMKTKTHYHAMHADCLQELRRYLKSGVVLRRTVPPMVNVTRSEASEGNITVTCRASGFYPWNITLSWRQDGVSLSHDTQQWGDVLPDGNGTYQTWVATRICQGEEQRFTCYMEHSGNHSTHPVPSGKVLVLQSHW

| NK-mediated lysis of FGFR3-expressing P815 cells (calcein release) [2] [fold] | koff (biotinylated human NKG2D [3]) [s⁻¹] | kon (biotinylated human NKG2D [3]) [M⁻¹ s⁻¹] | IC50 (read off the curve) (mouse NKG2D-Fc) [nM] | fold better binding than WT NKG2DL (IC50) (human NKG2D-Fc [4]) [fold] | Kd (biotinylated human NKG2D [5]) [nM] | IC50 (human NKG2D-Fc [6]) [nM] | fold affinity increase relative to WT α1-α2 (biotinylated human NKG2D [7]) [fold] | fold reduction in the off-rate relative to WT (biotinylated human NKG2D [7]) [fold] | EC50 (read off the curve) (FGFR3 (coated on wells) [9]) [nM] | Molecule | also measured |
| --- | --- | --- | --- | --- | --- | --- | --- | --- | --- | --- | --- |
| 15 | 7e-05 | 200000 | ~1 | 32 | 0.4 | 0.6 | ~30 | 18 | – | α1-α2 variant 17 (designed binder, His-tagged protein from insect cells, modified α1-α2 domain with an attached polypeptide) EPHSLRYNLTVLSWDGSVQSGFLTEVHLDGQPFLRCDRQKCRAKPQGQWAEDVLGNKTWDRETRDLTLWGKDLRMTLAHIKDQKEGLHSLQEIRVCEIHEDNSTRSSQHFYYDGELFLSQNLETLEWTMPQSSRAQTLAMNVRNFLKEDAMETDTHYHAMRADCLQELRRYLKSGVVLRRTVPPMVQVTRSEASGGSGDRVTITCRASQDVSTAVAWYQQKPGKAPKLLIYSASFLYSGVPSRFSGSGSGTDFTLTISSLQPEDFATYYCQQSYTTPPTFGQGTKVEIKGGSSRSSSSGGGGSGGGGEVQLVESGGGLVQPGGSLRLSCAASGFTFTSTGISWVRQAPGKGLEWVGRIYPTNGSTNYADSVKGRFTISADTSKNTAYLQMNSLRAEDTAVYYCARTYGIYDLYVDYTEYVMDYWGQGTLVTVSSGGSSRSSSSGGGGSGGGGDIQMTQSPSSLSASGGSGQITVTCRASGFYPWNITLSWRQDGVSLSHDTQQWGDVLPDGQGTYQTWVATRISQGEEQRFTCYMEHSGQHSTHPVPSGKGSHHHHHH | – |
| 15 | 9e-05 | 230000 | ~1 | 38 | 0.4 | 0.5 | ~30 | 18 | – | α1-α2 variant 18 (designed binder, His-tagged protein from insect cells, modified α1-α2 domain with an attached polypeptide) EPHSLRYNLTVLSWDGSVQPGFLTEVHLDGQPFLRCDRQKCRAKPQGQWAEDVLGNKTWDRETRDLTLWGKDLRMTLAHIKDQKEGLHSLQEIRVCEIHEDNSTRSSQHFYYDGELFLSQNLETLEWTMPQSSRAQTLAMNVRNFLKEDAMETDTHYHAMRADCLQELRRYLKSGVVLRRTVPPMVQVTRSEASGGSGDRVTITCRASQDVSTAVAWYQQKPGKAPKLLIYSASFLYSGVPSRFSGSGSGTDFTLTISSLQPEDFATYYCQQSYTTPPTFGQGTKVEIKGGSSRSSSSGGGGSGGGGEVQLVESGGGLVQPGGSLRLSCAASGFTFTSTGISWVRQAPGKGLEWVGRIYPTNGSTNYADSVKGRFTISADTSKNTAYLQMNSLRAEDTAVYYCARTYGIYDLYVDYTEYVMDYWGQGTLVTVSSGGSSRSSSSGGGGSGGGGDIQMTQSPSSLSASGGSGQITVTCRASGFYPWNITLSWRQDGVSLSHDTQQWGDVLPDGQGTYQTWVATRISQGEEQRFTCYMEHSGQHSTHPVPSGKGSHHHHHH | – |

Further lines, the molecule ahead of its results:

| Molecule | NK-mediated lysis of FGFR3-expressing P815 cells (calcein release) [2] [fold] | koff (biotinylated human NKG2D [3]) [s⁻¹] | kon (biotinylated human NKG2D [3]) [M⁻¹ s⁻¹] | IC50 (read off the curve) (mouse NKG2D-Fc) [nM] | fold better binding than WT NKG2DL (IC50) (human NKG2D-Fc [4]) [fold] | Kd (biotinylated human NKG2D [5]) [nM] | IC50 (human NKG2D-Fc [6]) [nM] | fold affinity increase relative to WT α1-α2 (biotinylated human NKG2D [7]) [fold] | fold reduction in the off-rate relative to WT (biotinylated human NKG2D [7]) [fold] | EC50 (read off the curve) (FGFR3 (coated on wells) [9]) [nM] | also measured |
| --- | --- | --- | --- | --- | --- | --- | --- | --- | --- | --- | --- |
| MICA-scFv (traditional scFv constructed from MAbR3 fused to the C-terminus of soluble MICA) (from UniProt Q29983 24-307) (designed binder) | – | – | – | – | – | – | – | – | – | – | EC50 (read off the curve) (FGFR3 (coated on wells) [1]): 5 nM |
| soluble MICA generated from pKK35 (loop 3 insert His10sp) (designed binder) EPHSLRYNLTVLSWDGSVQSGFLTEVHLDGQPFLRCDRQKCRAKPQGQWAEDVLGNKTWDRETRDLTGNGKDLRMTLAHIKDQKEGLHSLQEIRVCEIHEDNSTRSSQHFYYDGELFLSQNLETKEWTMPQSSRAQTLAMNVRNFLKEDAMKTKTHYHAMHADCLQELRRYLKSGVVLRRTVPPMVNVTRSEASEGNITVTCRASGFYPWNITLSWRQDGVSLSHDTQQWGDVLPDGNGTYQTWVATRISGGSGGGSHHHHHHHHHHSGGSGGGCYMEHSGNHSTHPVPSGK | – | – | – | – | – | – | – | – | – | – | αvβ5 signal (integrin αVβ5): 0.392 OD; αvβ5 signal/ng (signal/ng MICA) (integrin αVβ5): 2.31; αvβ3 signal (integrin αVβ3): 0.419 OD; αvβ3 signal/ng (signal/ng MICA) (integrin αVβ3): 2.46 |
| MICA-α3-iFv.2 (designed binder) EPHSLRYNLTVLSWDGSVQSGFLTEVHLDGQPFLRCDRQKCRAKPQGQWAEDVLGNKTWDRETRDLTGNGKDLRMTLAHIKDQKEGLHSLQEIRVCEIHEDNSTRSSQHFYYDGELFLSQNLETKEWTMPQSSRAQTLAMNVRNFLKEDAMKTKTHYHAMHADCLQELRRYLKSGVVLRRTVPPMVQVTRSEASGGSGDRVTITCRASQDVSTAVAWYQQKPGKAPKLLIYSASFLYSGVPSRFSGSGSGTDFTLTISSLQPEDFATYYCQQSYTTPPTFGQGTKVEIKGGSSRSSSSGGGGSGGGGEVQLVESGGGLVQPGGSLRLSCAASGFTFTSTGISWVRQAPGKGLEWVGRIYPTNGSTNYADSVKGRFTISADTSKNTAYLQMNSLRAEDTAVYYCARTYGIYDLYVDYTEYVMDYWGQGTLVTVSSGGSSRSSSSGGGGSGGGGDIQMTQSPSSLSASGGSGQITVTCRASGFYPWNITLSWRQDGVSLSHDTQQWGDVLPDGQGTYQTWVATRISQGEEQRFTCYMEHSGQHSTHPVPSGKGSHHHHHH | – | – | – | – | – | – | – | – | – | ~2 | EC50 (read off the curve) (FGFR3 (coated on wells) [8]): ~5 nM |
| MICA-α3-iFv.1 (designed binder) EPHSLRYNLTVLSWDGSVQSGFLTEVHLDGQPFLRCDRQKCRAKPQGQWAEDVLGNKTWDRETRDLTGNGKDLRMTLAHIKDQKEGLHSLQEIRVCEIHEDNSTRSSQHFYYDGELFLSQNLETKEWTMPQSSRAQTLAMNVRNFLKEDAMKTKTHYHAMHADCLQELRRYLKSGVVLRRTVPPMVQVTRSEASGDRVTITCRASQDVSTAVAWYQQKPGKAPKLLIYSASFLYSGVPSRFSGSGSGTDFTLTISSLQPEDFATYYCQQSYTTPPTFGQGTKVEIKGGSSRSSSSGGGGSGGGGEVQLVESGGGLVQPGGSLRLSCAASGFTFTSTGISWVRQAPGKGLEWVGRIYPTNGSTNYADSVKGRFTISADTSKNTAYLQMNSLRAEDTAVYYCARTYGIYDLYVDYTEYVMDYWGQGTLVTVSSGGSSRSSSSGGGGSGGGGDIQMTQSPSSLSASGQITVTCRASGFYPWNITLSWRQDGVSLSHDTQQWGDVLPDGQGTYQTWVATRISQGEEQRFTCYMEHSGQHSTHPVPSGKGSHHHHHH | – | – | – | – | – | – | – | – | – | ~1 | – |
